In patent publication US20040096899A1, “Immunoassay method for membrane-bound matrix metalloprotease” (priority 2000, published 2004):

Target: T1, MT1-MMP sandwich EIA (solid-phase antibody 222-2D12, labeled antibody 222-1D8) (Homo sapiens, UniProt P50281)
T1 construct: 488 amino acid residues of Δ MT1-MMP (G^48 to G^53) which lacks the signal peptide and part of the propeptide region; made in house; host or cells: E. coli
Experiment: Specificity test: cross reactivity on MT1-MMP sandwich EIA
Type: binding
Details: concentration 1 μg/mL; blank 0.027
Description: Monoclonal antibodies (e.g., 333-2D12 (IgG)) were dissolved in 0.1 M phosphate buffer, pH 7.0 to a concentration of 25 μg/mL. The monoclonal antibody solution was added to each well of a 96-well microwell (Maxisorp; Nunc-Immuno Module) at 100 μL per well and allowed to stand at 4° C. for 24 hrs. […] The solid-phase antibodies were preserved at 4° C.
Standard antigens or samples to be assayed were dispensed into a 96-well vinyl plate at 25 μL each. To each well was added a dilution buffer in aliquots of 100 μL, followed by mixing. An aliquot (100 μL) of the resultant mixture was taken out, dispensed into an antibody-solid phased plate from which a blocking solution was removed by washing. The plate was then allowed to stand at 4° C. for 16 hours.
[…] antibody 222-1D8 (Fab′-HRP) was diluted with a blocking solution to a concentration of 0.4 μg/mL. The reaction solution was removed from the antibody-solid phased plate where the primary reaction was completed. The plate was washed with a washing liquid three times and an aliquot (100 μL) of the labeled antibody solution was added to each well. The plate was allowed to stand at room temperature for 1 hour.
After completion of the reaction, the labeled antibody solution was removed. The plate was then washed with a washing liquid three times, and a TMB solution (CALBIOCHEM) was added to each well at 100 μL. The mixture was allowed to react at room temperature for 20 minute. The reaction was stopped with the addition of 2 N sulfuric acid at 100 μL per well. The reaction mixture was measured for A450 with a microplate reader (MPR-A4; Tosoh).
Each of MMP-1, -2, -3, -4, -7, -8, -9, -13, -19 and -20 was prepared to give a concentration of 1 μg/mL, and subjected to MT1-MMP sandwich EIA. A450 was measured. When MT1-MMP was subjected to sandwich EIA at 0.16 μg/mL, the absorbance was 2.206. However, when the above MMPs were subjected, their absorbances were only an extent of 0.024 to 0.071. Accordingly, it has been verified that MT1-MMP sandwich EIA is specifically reactive with MT1-MMP.

Row | Molecule | A450
1 | MMP-1: matrix metalloproteinase subjected to MT1-MMP sandwich EIA for cross reactivity (protein) FPATLETQEQDVDLVQKYLEKYYNLKNDGRQVEKRRNSGPVVEKLKQMQEFFGLKVTGKPDAETLKVMKQPRCGVPDVAQFVLTEGNPRWEQTHLTYRIENYTPDLPRADVDHAIEKAFQLWSNVTPLTFTKVSEGQADIMISFVRGDHRDNSPFDGPGGNLAHAFQPGPGIGGDAHFDEDERWTNNFREYNLHRVAAHELGHSLGLSHSTDIGALMYPSYTFSGDVQLAQDDIDGIQAIYGRSQNPVQPIGPQTPKACDSKLTFDAITTIRGEVMFFKDRFYMRTNPFYPEVELNFISVFWPQLPNGLEAAYEFADRDEVRFFKGNKYWAVQGQNVLHGYPKDIYSSFGFPRTVKHIDAALSEENTGKTYFFVANKYWRYDEYKRSMDPGYPKMIAHDFPGIGHKVDAVFMKDGFFYFFHGTRQYKFDPKTKRILTLQKANSWFNCRKN | 0.025
2 | MMP-2: matrix metalloproteinase subjected to MT1-MMP sandwich EIA for cross reactivity (protein) APSPIIKFPGDVAPKTDKELAVQYLNTFYGCPKESCNLFVLKDTLKKMQKFFGLPQTGDLDQNTIETMRKPRCGNPDVANYNFFPRKPKWDKNQITYRIIGYTPDLDPETVDDAFARAFQVWSDVTPLRFSRIHDGEADIMINFGRWEHGDGYPFDGKDGLLAHAFAPGTGVGGDSHFDDDELWTLGEGQVVRVKYGNADGEYCKFPFLFNGKEYNSCTDTGRSDGFLWCSTTYNFEKDGKYGFCPHEALFTMGGNAEGQPCKFPFRFQGTSYDSCTTEGRTDGYRWCGTTEDYDRDKKYGFCPETAMSTVGGNSEGAPCVFPFTFLGNKYESCTSAGRSDGKMWCATTANYDDDRKWGFCPDQGYSLFLVAAHEFGHAMGLEHSQDPGALMAPIYTYTKNFRLSQDDIKGIQELYGASPDIDLGTGPTPTLGPVTPEICKQDIVFDGIAQIRGEIFFFKDRFIWRTVTPRDKPMGPLLVATFWPELPEKIDAVYEAPQEEKAVFFAGNEYWIYSASTLERGYPKPLTSLGLPPDVQRVDAAFNWSKNKKTYIFAGDKFWRYNEVKKKMDPGFPKLIADAWNAIPDNLDAVVDLQGGGHSYFFKGAYYLKLENQSLKSVKFGSIKSDWLGC | 0.024

Now from value to molecule:

Row | A450 | Molecule
3 | 0.071 | MMP-20: matrix metalloproteinase subjected to MT1-MMP sandwich EIA for cross reactivity (protein) APSLVAASPRTWRNNYRLAQAYLDKYYTNKEGHQIGEMVARGSNSMIRKIKELQAFFGLQVTGKLDQTTMNVIKKPRCGVPDVANYRLFPGEPKWKKNTLTYRISKYTPSMSSVEVDKAVEMALQAWSSAVPLSFVRINSGEADIMISFENGDHGDSYPFDGPRGTLAHAFAPGEGLGGDTHFDNAEKWTMGTNGFNLFTVAAHEFGHALGLAHSTDPSALMYPTYKYKNPYGFHLPKDDVKGIQALYGPRKVFLGKPTLPHAPHHKPSIPDLCDSSSSFDAVTMLGKELLLFKDRIFWRRQVHLRTGIRPSTITSSFPQLMSNVDAAYEVAERGTAYFFKGPHYWITRGFQMQGPPRTIYDFGFPRHVQQIDAAVYLREPQKTLFFVGDEYYSYDERKRKMEKDYPKNTEEEFSGVNGQIDAAVELNGYIYFFSGPKTYKYDTEKEDVVSVVKSSSWIGC
4 | 0.027 | MMP-19: matrix metalloproteinase subjected to MT1-MMP sandwich EIA for cross reactivity (protein) RVLGLAEVAPVDYLSQYGYLQKPLEGSNNFKPEDITEALRAFQEASELPVSGQLDDATRARMRQPRCGLEDPFNQKTLKYLLLGRWRKKHLTFRILNLPSTLPPHTARAALRQAFQDWSNVAPLTFQEVQAGAADIRLSFHGRQSSYCSNTFDGPGRVLAHADIPELGSVHFDEDEFWTEGTYRGVNLRIIAAHEVGHALGLGHSRYSQALMAPVYEGYRPHFKLHPDDVAGIQALYGKKSPVIRDEEEEETELPTVPPVPTEPSPMPDPCSSELDAMMLGPRGKTYAFKGDYVWTVSDSGPGPLFRVSALWEGLPGNLDAAVYSPRTQWIHFFKGDKVWRYINFKMSPGFPKKLNRVEPNLDAALYWPLNQKVFLFKGSGYWQWDELARTDFSSYPKPIKGLFTGVPNQPSAAMSWQDGRVYFFKGKVYWRLNQQLRVEKGYPRNISHNWMHCRPRTIDTTPSGGNTTPSGTGITLDTTLSATETTFEY
5 | 0.039 | MMP-9: matrix metalloproteinase subjected to MT1-MMP sandwich EIA for cross reactivity (protein) APRQRQSTLVLFPGDLRTNLTDRQLAEEYLYRYGYTRVAEMRGESKSLGPALLLLQKQLSLPETGELDSATLKAMRTPRCGVPDLGRFQTFEGDLKWHHHNITYWIQNYSEDLPRAVIDDAFARAFALWSAVTPLTFTRVYSRDADIVIQFGVAEHGDGYPFDGKDGLLAHAFPPGPGIQGDAHFDDDELWSLGKGVVVPTRFGNADGAACHFPFIFEGRSYSACTTDGRSDGLPWCSTTANYDTDDRFGFCPSERLYTQDGNADGKPCQFPFIFQGQSYSACTTDGRSDGYRWCATTANYDRDKLFGFCPTRADSTVMGGNSAGELCVFPFTFLGKEYSTCTSEGRGDGRLWCATTSNFDSDKKWGFCPDQGYSLFLVAAHEFGHALGLDHSSVPEALMYPMYRFTEGPPLHKDDVNGIRHLYGPRPEPEPRPPTTTTPQPTAPPTVCPTGPPTVHPSERPTAGPTGPPSAGPTGPPTAGPSTATTVPLSPVDDACNVNIFDAIAEIGNQLYLFKDGKYWRFSEGRGSRPQGPFLIADKWPALPRKLDSVFEERLSKKLFFFSGRQVWVYTGASVLGPRRLDKLGLGADVAQVTGALRSGRGKMLLFSGRRLWRFDVKAQMVDPRSASEVDRMFPGVPLDTHDVFQYREKAYFCQDRFYWRVSSRSELNQVDQVGYVTYDILQCPED
